Patent US20190300875A1 (University of California, published 2019)

T1: Flag-hCRY1 (human, UniProt Q16526 1-586)
T1 construct: this is the CRY1 form; not shown: Flag tag
T1 sequence (looked up): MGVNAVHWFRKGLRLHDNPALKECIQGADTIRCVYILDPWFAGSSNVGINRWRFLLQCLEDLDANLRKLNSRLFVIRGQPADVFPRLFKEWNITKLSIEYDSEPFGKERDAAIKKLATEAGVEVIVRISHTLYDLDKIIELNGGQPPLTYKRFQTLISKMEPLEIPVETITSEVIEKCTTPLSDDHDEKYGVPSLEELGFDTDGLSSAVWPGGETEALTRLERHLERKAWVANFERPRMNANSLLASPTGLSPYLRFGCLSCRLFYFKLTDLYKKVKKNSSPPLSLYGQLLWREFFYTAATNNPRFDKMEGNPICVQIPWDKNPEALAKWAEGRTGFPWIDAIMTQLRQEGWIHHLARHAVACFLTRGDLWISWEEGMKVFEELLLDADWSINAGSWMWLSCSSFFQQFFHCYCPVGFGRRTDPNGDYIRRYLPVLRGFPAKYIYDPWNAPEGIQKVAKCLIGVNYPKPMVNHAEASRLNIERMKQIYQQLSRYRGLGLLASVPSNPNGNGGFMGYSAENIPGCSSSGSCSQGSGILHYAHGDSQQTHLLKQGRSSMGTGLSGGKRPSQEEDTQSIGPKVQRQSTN

B1: Myc-CRY2 (other)
chain: MKMDKKTIVWFRRDLRIEDNPALAAAAHEGSVFPVFIWCPEEEGQFYPGRASRWWMKQSLAHLSQSLKALGSDLTLIKTHNTISAILDCIRVTGATKVVFNHLYDPVSLVRDHTVKEKLVERGISVQSYNGDLLYEPWEIYCEKGKPFTSFNSYWKKCLDMSIESVMLPPPWRLMPITAAAEAIWACSIEELGLENEAEKPSNALLTRAWSPGWSNADKLLNEFIEKQLIDYAKNSKKVVGNSTSLLSPYLHFGEISVRHVFQCARMKQIIWARDKNSEGEESADLFLRGIGLREYSRYICFNFPFTHEQSLLSHLRFFPWDADVDKFKAWRQGRTGYPLVDAGMRELWATGWMHNRIRVIVSSFAVKFLLLPWKWGMKYFWDTLLDADLECDILGWQYISGSIPDGHELDRLDNPALQGAKYDPEGEYIRQWLPELARLPTEWIHHPWDAPLTVLKASGVELGTNYAKPIVDIDTARELLAKAISRTREAQIMIGAAPDEIVADSFEALGANTIKEPGLCPSVSSNDQQVPSAVRYNGSKRVKPEEEEERDMKKSRGFDERELFSTAESSSSSSVFFVSQSCSLASEGKNLEGIQDSSDQITTSLGKNGCK
notes: not shown: Myc tag
B2: nYFP-CRY2 (N terminus of YFP fused to CRY2) (other)
chain: B1 chain
notes: BiFC construct in Arabidopsis protoplasts; not shown: N terminus of YFP
B3: Arabidopsis cryptochrome 2 (CRY2) (receptor)
chain: B1 chain
notes: also called AT1G04400
B4: Blue-light Inhibitor of Cryptochromes 2 (BIC2) (other)
chain: MKNTNLPEETKEPISPGSSHRKQNKTGTKTCFPETTVLSGRDRLKRHREEVAGKVPIPDSWGKEGLLMGWMDFSTFDAAFTSSQIVSARAALMADSGDDAGARGSRPQRLRVESSC
notes: also called Arabidopsis BIC2; AT3G44450
B5: human cryptochrome 1 (hCRY1) (other, UniProt Q16526 1-586, looked up)
chain: T1 sequence (looked up)
notes: Homodimerization tested with differently tagged copies (Flag-hCRY and Myc-hCRY) co-expressed in HEK293T cells; also called human CRY1
B6: GFP-BIC1 (other)
chain: MMNIDDTTSPMAHPIGPSQPPSDQTKQDPPSLPQEAASSVSADKKDLALLEEKPKQSQEEDRVDTGRERLKKHRREIAGRVWIPEIWGQEELLKDWIDCSTFDTCLVPAGISSARTALVEEARRAASASGGLHNRCLILR
notes: Expressed in HEK293T cells; not shown: GFP
B7: Blue-light Inhibitor of Cryptochromes 1 (BIC1) (other)
chain: B6 chain
notes: also called Arabidopsis BIC1; AT3G52740

Experiments:
FLUC-CRY2 (Arabidopsis) = FLUC-CRY2 (Arabidopsis) (UniProt Q96524); test: quantitative co-IP (dual-luciferase), anti-Flag beads, HEK293T cells, blue light 30 µmol m^-2 s^-1
Flag-CRY2 = biological target: T2, Flag-CRY2 (Arabidopsis, UniProt Q96524 1-612); test: co-IP with antibody to Flag, HEK293T cells, dark
T2 construct: not shown: Flag tag
Text: Homodimers are the physiologically active form of plant CRYs (8, 9), but the effect of light on CRY dimerization has not been detected in previous studies (9, 20). This could be explained by, among other interpretations, light-independent CRY dimerization or masking effects of regulatory proteins, such as BICs, on the light-dependent CRY dimerization (9, 20). We reexamined the bluelight dependence of CRY2 dimerization using multiple approaches. In the first experiment, we coexpressed Flag-CRY2 and Myc-CRY2 in HEK293T cells (21-24) and tested the interaction between the two differentially tagged CRY2s by co-IP assay. In the absence of blue light, antibody to Flag coprecipitated little Myc-CRY2 from HEK293T cells expressing similar amounts of Flag-CRY2 and Myc-CRY2 (FIG. 4B and FIG. S12A of Wang et al).

[1] = biological target: T3, GFP-CRY2 (CRY2 fused to green fluorescent protein) (Arabidopsis, UniProt Q96524 1-612); test: co-IP with GFP-Trap-A from etiolated seedlings co-expressing Myc-CRY2 and GFP-CRY2, blue light 20 sec to 10 min (FIG. 9A)
T3 construct: Expressed in Arabidopsis plants together with Myc-CRY2; not shown: green fluorescent protein
Text: GFP-Trap-A were used to immunoprecipitate GFP-CRY2. GFP-CRY2 (IP signal) and Myc-CRY2 (co-IP signal) were detected by GFP or Myc antibody, respectively. […] HEK293T cells co-expressing FLUC-CRY2 and REN-CRY2 were exposed to blue light (30 μmol·m⁻²·s⁻¹) for the time indicated, lysed, aliquots removed for the measurement of ATL (Adjusted Total Luminescence), and FLUC-CRY2 precipitated by anti-Flag antibody conjugated beads. Photodimerization of CRY2 was quantified by the dual-luciferase assay to calculate the Normalized Dimerization Ratio (NDR) by the formula: NDR=[(REN/LUC)L/(REN/LUC)D]/ATL, where LUC is the LUC luminescence detected for the precipitated FLUC-CRY2, REN is the REN luminescence detected for the co-precipitated REN-CRY2. (REN/LUC)L or (REN/LUC)D were measured in cells exposed to light or darkness, respectively. ATL (Adjusted Total Luminescence) is the cell volume-adjusted sum of LUC and REN luminescence of the cell lysates before immunoprecipitation, in which REN luminescence is converted to the LUC equivalent by the standard curve prepared by analyses of the LUC-REN fusion protein (not shown). ATL represents concentration of the CRY2 protein. […] Flag-CRY2 (IP signal) and Myc-CRY2 or GFP-BIC1 (co-IP signals) were detected by Flag and Myc or GFP antibody, respectively. […]

[2] = biological target: T4, cCFP-CRY2 (C terminus of cyan fluorescent protein fused to CRY2) (Arabidopsis, UniProt Q96524 1-612); test: BiFC in Arabidopsis protoplasts
T4 construct: BiFC construct in Arabidopsis protoplasts; not shown: C terminus of cyan fluorescent protein

[3] = biological target: the molecule itself; test: yeast β-gal assay (FIG. 4A); also immunoblots of HEK293FT lysates (4B, 4C) and plant nuclear proteins (4D, 4E) after blue light
Text: FIG. 4 provides data showing redox-dependent CRY dimerization, and blue-light-induced CRY and BIC interaction. (FIG. 4A) The β-galactosidase (β-gal) assay showing the blue-light-dependent formation of CRY2 dimer. Yeast cells were kept in darkness (D) or illuminated with blue light (B5, 5 μmol m⁻² s⁻¹; B25, 25 μmol m⁻² s⁻¹; B50, 50 μmol m⁻² s⁻¹) for the indicated time. (FIG. 4B) Immunoblot showing the blue-light-induced dimerization of CRY2 expressed in HEK293FT (H293) cells. The cells were lysed, divided into 12 samples and irradiated by blue light (40 μmol m⁻²s⁻¹) for the indicated durations. For β-mercaptoethanol (2-Me) treatment, 6 samples were added with 2-Me to 5% (v/v), and then all the samples were analyzed by western blot using anti-CRY2 antibody. CRY2, monomeric CRY2; (CRY2)2, CRY2 dimer; (CRY2)ₙ, CRY2 oligomer. (FIG. 4C) The H293 cell lysate were prepared in dark, irradiated with blue light for the durations indicated. For the NEM treatment, the samples were added with NEM (50 mM), and then the samples were analyzed by western blot using anti-CRY2 antibody. (FIGS. 4D and E) Dimerization and oligomerization of CRY2 proteins are blue light-induced in vivo. […]

[4] = biological target: B3; test: summary of the examples
[5] = biological target: the molecule itself; test: co-IP, HEK293T cells, control experiment
Flag-hCRY1 = biological target: T1, Flag-hCRY1; test: co-IP with anti-Flag beads, HEK293T cells (FIG. 11)
Procedure: In FIG. 11, HEK293T cells coexpressing Flag-hCRY, Myc-hCRY and GFP-BIC1 or GFP were exposed to 100 μmol m⁻² s⁻¹ blue light for 2 hours (+) or kept in the dark (−). Anti-Flag antibody conjugated beads were used to perform the immunoprecipitations. Flag-hCRY (IP signal) and Myc-hCRY or GFP-BIC1 (co-IP signals) were detected by Flag and Myc or GFP antibody, respectively. […]

Work on REN-CRY2 yielded a Maximum Photodimerization (Dm, maximum Normalized Dimerization Ratio) (FLUC-CRY2 (Arabidopsis)) of 4.7 and a Rate of Photodimerization (D1/2) (FLUC-CRY2 (Arabidopsis)) of 1 min.

B1: binds (Flag-CRY2); binds [1].

B2: binds [2].

B3: binds [3].

B4: binds [4].

B5: binds [5].

B6: binds (Flag-hCRY1).

B7: binds [4].
